This test addresses extra-cellular receptor for interleukin 34 (Homo sapiens, UniProt P07333). The test can be described thus: NPOI flow cell label-free binding with fraction collection (AC-MS). An excerpt: The first embodiment is sketched in FIG. 3. The NPOI flow cell instrument is used together with a fraction collector. This fraction collector could simply be a collection vessel of some sort. Initially capture molecule is placed on the porous silicon chip using a typical flow cell procedure. A carboxyl chip shown at 214 in FIG. 2, used for amino coupling, is used. This contains both a sample and reference channel 220 and 221. Using the AutoPrep 200 and two 6-port, 2-position injection valves, one for the sample 210 and one for the reference 211, solutions are introduced to the flow cell. Initially the chip is activated using water as running buffer, pumped by two separate pumps one for sample 212 and one for reference 213, at 8 μL/min. A solution of 200 mM, 1-ethyl-3-(3-dimethylaminopropyl) carbodiimide (EDC) and 50 mM sufo N-hydroxysuccinimide (sNHS) is used to activate the chip for 8 minutes. Then a solution of 20 μg/mL capture molecule is introduced in pH 5.0, 40 mM acetate buffer (1-1,000 μg/mL concentration may also be used). […] The chip is now ready for binding. […]
A specific example of such an approach is shown in FIG. 8 which is a print of a monitor display showing Mascot Search Results. […] The resulting data was analyzed using Mascot and a customized human protein database (810) show the successful identification of IL34.

Chain of extra-cellular receptor for interleukin 34 (P07333 20-517 limits assumed): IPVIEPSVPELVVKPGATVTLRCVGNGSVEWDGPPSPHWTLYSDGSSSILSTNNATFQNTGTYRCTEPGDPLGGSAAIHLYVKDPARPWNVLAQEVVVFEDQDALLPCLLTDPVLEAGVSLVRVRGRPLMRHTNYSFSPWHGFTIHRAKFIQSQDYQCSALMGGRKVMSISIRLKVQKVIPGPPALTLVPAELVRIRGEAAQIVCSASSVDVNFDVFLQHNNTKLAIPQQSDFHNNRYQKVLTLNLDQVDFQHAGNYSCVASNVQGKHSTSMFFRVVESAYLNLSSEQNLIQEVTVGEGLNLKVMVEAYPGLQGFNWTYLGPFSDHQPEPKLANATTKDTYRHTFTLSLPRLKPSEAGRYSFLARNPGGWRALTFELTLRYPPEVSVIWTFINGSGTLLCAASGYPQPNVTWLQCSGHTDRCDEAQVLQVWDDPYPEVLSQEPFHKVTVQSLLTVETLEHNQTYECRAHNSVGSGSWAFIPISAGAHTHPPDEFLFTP

B1: Interleukin 34 (protein, UniProt Q6ZMJ4 21-242, looked up)
Interleukin-34: NEPLEMWPLTQNEECTVTGFLRDKLQYRSRLQYMKHYFPINYKISVPYEGVFRIANVTRLQRAQVSERELRYLWVLVSLSATESVQDVLLEGHPSWKYLQEVETLLLNVQQGLTDVEVSPKVESVLSLLNAPGPNLKLVRPKALLDNCFRVMELLYCSCCKQSSVLNWQDCEVPSPQSCSPEPSLQYAATQLYPPPPWSPSSPPHSTGSVRPVRAQGEGLLP
notes: Interleukin 34 (the analyte) doped into spent cell culture media
Turning to B1, the “change in OPD (label-free binding signal)” value (IL34 100 ng/mL in spent cell culture media, 50 μL, between 0 and 240 seconds, receptor immobilized at 100 μg/mL) is listed as 0.7 nm. Further, where the note is “almost complete capture of the material introduced”, the “amount captured on chip corresponding to OPD change” value was found to be 5 ng.

The values above are taken from patent US20100227414A1, “Affinity capture mass spectroscopy with a porous silicon biosensor” (Trex Enterprises Corp., priority 2009, published 2010).
